Like-named read-outs stand apart in the source and are kept apart here. Ends that are not written are not given here.
Assays:
[1] = biological target: T1, Ab-12, anti-PD-L1xCD28 non-masked antibody in Vh format; assay: competition ELISA: peptide titrated against 5 nM Ab-12; binding of Ab-12 to captured biotinylated CD28 antigen is read; table prints 'IC50 nM' but the axis is Log [Peptide, uM] and the curve falls between Log 0.5 and Log 2
T1 construct: also called PDL1xCD28 non-masked (Vh)

[2] = biological target: T1, Ab-12, anti-PD-L1xCD28 non-masked …; assay: competition ELISA: peptide titrated against 5 nM Ab-12; binding of Ab-12 to captured biotinylated CD28 antigen is read
[3] = biological target: T1, Ab-12, anti-PD-L1xCD28 non-masked …; assay: as above; remark: listed apart in the source
[4] = biological target: T1, Ab-12, anti-PD-L1xCD28 non-masked …; assay: as above; remark: listed apart in the source
[5] = biological target: T1, Ab-12, anti-PD-L1xCD28 non-masked …; assay: as above; remark: listed apart in the source
[6] = biological target: T2, anti-CD28 scFv (SEQ ID NO: 9); assay: competition ELISA: peptide titrated against 2 nM anti-CD28 scFv; binding of the scFv to captured biotinylated CD28 antigen is read
T2 construct: also called Anti-CD28 scFv (VH-linker 1-VL)

[7] = biological target: T2, anti-CD28 scFv (SEQ ID NO: 9); assay: as above; remark: listed apart in the source
[8] = biological target: T1, Ab-12, anti-PD-L1xCD28 non-masked …; assay: competition ELISA: peptide titrated against 5 nM Ab-12; binding of Ab-12 to captured biotinylated CD28 antigen is read; table prints 'IC50 nM' but the axis is Log [Peptide, uM]
[9] = biological target: T2, anti-CD28 scFv (SEQ ID NO: 9); assay: competition ELISA: peptide titrated against 2 nM anti-CD28 scFv; binding of the scFv to captured biotinylated CD28 antigen is read; remark: listed apart in the source
[10] = biological target: T2, anti-CD28 scFv (SEQ ID NO: 9); assay: as above; remark: listed apart in the source
[11] = biological target: T2, anti-CD28 scFv (SEQ ID NO: 9); assay: as above; remark: listed apart in the source

IC50 [1] | IC50 (read off the curve) [2] | IC50 [3] | IC50 [4] | IC50 [5] | IC50 (read off the curve) [6] | IC50 [7] | IC50 [8] | IC50 (read off the curve) [9] | IC50 [10] | IC50 [11] | Binder
0.021 µM |  |  |  |  |  |  |  |  |  |  | GYCHYWGDMVMWCG (cysteine pairing not given here; also: biotinylated, site not given here, also called Peptide-12_200 nM) [Peptide-12]
 | ~2 µM | 2.24 µM | 1.86 µM | 2.63 µM | ~2 µM | 1.28 µM | 0.00154 µM |  |  |  | MDWCPRERWVDCFF (cysteine pairing not given here; also: biotinylated, site not given here) [Peptide-9]
 |  | 2.45 µM | 2.43 µM | 2.62 µM |  | 1.63 µM |  | ~2 µM | 1.37 µM | 1.65 µM | MDWCPRERWVDCFF [Peptide-51]
